This series can be described thus: yeast display, Sf9 membrane polyspecificity reagent, FACS + sequencing; frameworks hold sequencing errors. The gist of the method:
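A synthetic nanobody library was expressed on Saccharomyces cerevisiae BJ5465 by galactose induction for 36–48 hours. The library was stained for 1 hour at 4 °C with 10% biotinylated, detergent-solubilized Sf9 membrane reagent and enriched with streptavidin microbeads before FACS. Low and high (top ~1%) gates were set on anti-HA fluorescence for expression and streptavidin fluorescence for reagent binding, and each polyreactivity label reflects the gate of origin.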
In the case of “QVQLVESGGGLVQAGGSLRLSCAAYGITFKGNAMGWYRQAPGKERELVAAIRWRAGRTYYADSVKGRFTISRDNAKNTVYLQMNSLKPEDTAVYDCAATYSYLWPEYDYWGQGTQVTVSS”, the “polyreactivity (PSR sort gate)” value is given as “high polyreactivity”.

Regarding “QVQLVESGGGLVQAGGSLRLSCAASGITFVRYAMGWYRQAPGKERELVAAINSDGNTYYADSVKGRFTISRDTAKNTVYLQLNSLKPEDTACYYCAAGQGAGVDYWGQGTQVTVSS”, the “polyreactivity (PSR sort gate)” value is “high polyreactivity”.

For the sequence “QGQLVESGGGLVQAGGSLRLSCAASGRTFNYYAMGWYREAPGKEWELGAAITNRGGSTYYADSVKGRFTISRDNAKNTVYLQMNSLKPEDTAVYYSAARGKYPSASGYTYSYGYWGQGTQVTVSS”, the “polyreactivity (PSR sort gate)” value was “high polyreactivity”.

Turning to “QVQLVESGGGLVQAGGSLRLSCAASGSIFGGYGMGWYRQAPGKERELVAVITKRGGSTYYADSVKGRFTISRDNAKNTVYLQMNSLKPEDTAVYYCNKVGYYASVLGYDYWGQGTQVTVSS”, the “polyreactivity (PSR sort gate)” value was “high polyreactivity”.

For the sequence “QVQLVESGGGLVQAGGSLSLSCAASGFTVKFYAMGWYRQAPGKERELVATISSRGTSTYYADSVKGRFTISRDNAKNTVYLQMNSLKPEDTAVYYCAAAWFPAYQYRYYYWGQGTQVTVSS”, the “polyreactivity (PSR sort gate)” value is reported as “high polyreactivity”.

Regarding “QVQLVESGGGLVQAGGSLRLTCAASGITFCIYVMGWYRQAPGKEREVVATISRSDDNTYYADSVKGRFTISRDNAKNTVYLQMYCLKPEDTAVYYCAADGVISAWYSSRDDYWGQGTQVTVSS”, the “polyreactivity (PSR sort gate)” value is on record as “low polyreactivity”.

As to “QVQLVESGGGLVQAGGSLRLSCAASGRTFIGNAMGWYRQAPGKERELVAGIDSDGSTNYADSVKGRFTISRDNAKNTVYLLMNSLKPEDTAVYYCAAVQGYRFYEYYYWGQGTQVTVSW”, the “polyreactivity (PSR sort gate)” value was “low polyreactivity”.

With “QVQLVESGGGLLQAGGSLRLSCAASGSTFRIYAMGWYRQAPGKERELVAAIRRRGASTYYADSVKGRFTISRDNAKNTVYLQMNSLKQEDTAVYYCAASYLWDRVPGRGIHDYWGQGTQVTVSS”, the “polyreactivity (PSR sort gate)” value is listed as “high polyreactivity”.

On to “QVQLVESGGGLVQAGGSLRLSCAASGRIFSKYAMGWYRQAPGKERELVAAITSGGRTYYADSVKGRFTISRDNAKNTVYLQMNSLIPEDTAVYYCAARYVQVVRKFGYWGQGTQVTVSS”, for which the “polyreactivity (PSR sort gate)” value is recorded as “high polyreactivity”.

As for “QVELVESCGGLVQAGGSLRLSCAASGSTFTRNGMGWYSLAPGKEREMVAAISSGGSTNYADSVKGRFTISRDNAKNTVDFQKNSLQPEDTAVYYCAVDYRHSSSWNAGPWQMYYWGQGTQVTVSS”, the “polyreactivity (PSR sort gate)” value is on record as “low polyreactivity”.

“QVQLVESGGGLVQAGGSLRLSCAASGRIFYFYAMGWYRQAPGKETELVAAISTSGGSTYYADSVKGRFTISRDNEKNTVYLQMNSLKPEYTAVYYCAARFRYYGSEYDYWGQGTQVTVSS”: the “polyreactivity (PSR sort gate)” value was “low polyreactivity”.

“QVQLVESGGGLVQAGGSLRLSCAASGRIFAYNAMGWYRQAPGKERELVAAITRSGGSTYYADSVKGRFTISRDNAKNTVYLQMNSLKPEDTAVYYCAKRYSYYIDDYWGQGTQVTVSS”: the “polyreactivity (PSR sort gate)” value is “low polyreactivity”.

Take “QVQQQESGGGLVQAGGSLRLSCAASGTIFQLTVMRRYRQAPGKERELVASIDYGGNTNYADSVKGRFTISRDNAKNTVYLQMNSLKPEDTAVYYCAASSDSWTTHPYWGQGTQVTVSS”: the “polyreactivity (PSR sort gate)” value is given as “low polyreactivity”.

In the case of “QVHLVESGVGLVQAGGSLRLSCAASGQIFPYYAMGWYRPAPGKETELVAAITSGGGTYYADSVKGRFTISRDNAKNTVYLQMNSLKPEDTAVYYCAVGSYGHPKHRRNLDYWGQGTQVTVSS”, the “polyreactivity (PSR sort gate)” value is “low polyreactivity”.

As for “QVQLVESGGGLVQAGGSLRLSCAASGIIFDINAMGWYRQAPGKERELVAAITTSVDSTYYADSVKGRFTISRDNAKNTVYLQMNSLKPEDTAVYYCAAGPGDSGDDYWGQGTQVTVSS”, the “polyreactivity (PSR sort gate)” value is “low polyreactivity”.

Take “QVQLVESGGGLVQAGGSLRLSCAASGRIFVHYAMGWYRQAPGKERELVAAISRSGGSTYYADSVKGRFTISRDTAKNTVYLQMNSLKPEDTAVYYCNTYPLSQFGPYWSGYDYWGQGTQVTVSS”: the “polyreactivity (PSR sort gate)” value was “high polyreactivity”.

On to “QVQLVESGGGLVQAGGSLRLSCAASGITFYGNAMGWYRQAPGTERELVAAITGGGGTNYADSVKGRFTISRDNAKNTVYLQMNSLKPEDTAVYYCNRDYFVWFQRGQYKRGSSWYDYWGQGTQVTVSS”, for which the “polyreactivity (PSR sort gate)” value is recorded as “low polyreactivity”.

As for “KVQLVESGGGLVQAGGSLRLSCAASGRIFLPYAMGWYRQAPGKEREFVAAITWGAGTTYYADSVKGRFTISRDNAKNTVYLQMNSLKPEDTAVYYCAAEYRVLSWTYGYWGQGTQVTVSS”, the “polyreactivity (PSR sort gate)” value was “high polyreactivity”.

With “QVQLQERAGGLVQAGGSLRQRCSASGYISCDASMGWYRQAPGKERELAASITKGSSTKYADIVKGRFTFRDNAKNTVYLKMNSLKPEDTAVCYCAVTYPYWGDYTYWGQGTQVTVSS”, the “polyreactivity (PSR sort gate)” value was “low polyreactivity”.

As to “QVQLVESGGGLVQAGGSLRLSCAASGSTIYTYAMGWSRQAPGKERELVAAINRSGGTTYYADSVKGRFTISRDNAKNTVYLQMNSLKPEDTADYYCARRRYGYDYWGQGTQVTVSS”, the “polyreactivity (PSR sort gate)” value was “high polyreactivity”.

On to “QVQLQESGDGLVQAVGSLRLSCAASGYISGYYYMGWYRQAPGKERELVAGIDAFGSSTNYADCVKGRFTISRDNAKNTVYLQMNSLKPEDTAVYYCAARPDGYRLFSYWGQGTQVTVSS”, for which the “polyreactivity (PSR sort gate)” value was “low polyreactivity”.

“QVQLVESGGGLVQAGGSLRLSCAASGFTFSGYDMGWYRQAPGKERELVAGISSVDHTYYADSVKGRFTISRDNAKNTVYLQMNSLKPEDTAVYYCAATLWPYYYVEYDYWGQGTEVTVSS”: the “polyreactivity (PSR sort gate)” value is reported as “low polyreactivity”.

Turning to “QVQLVESGGGLVQAGGSLRLSCAASGIIFHFNDMGWTTQAPGKERELVAAISRRGSTYYADSVTGRFTISRDNAKNSVYLQMNSLKPEDTAVYYCAKYRGRVKTYNGGYDYWGQGTQVSVSS”, the “polyreactivity (PSR sort gate)” value is “low polyreactivity”.

With “QVQLVESGGGLVKAGGSLRLSCAASGRIFDYNAMGWYRQAPGKERELVAAISYSGGGTYYADSVKGRFTISRDYAKNSVYFQMNSLKPEDTAVYYCAKPYYQYYYISYDYWGQGTQVTVSS”, the “polyreactivity (PSR sort gate)” value is “low polyreactivity”.

In the case of “QVQLVESGGGLVKAGVSLRLICAASGSTFDGNDMGWYRQAHGKERELVATINSDDSKNYADSVKGRFTISRDNAKNTVYLQMNSLKPEDTAVYYCAARLYVTPILSYVERYTNDYWGQGTQVTVSS”, the “polyreactivity (PSR sort gate)” value is reported as “low polyreactivity”.

Take “QVQLVESGGGLVQAGGSLRLSCAASGFIFWVYAMGWYRQAPGKESELVAAITSGGRTYYADSEKGRFTISRDNAKNTVYLQMNSLKPEDTAVYYCAARWHYGYYSYYYWGQGTQVTVSS”: the “polyreactivity (PSR sort gate)” value is recorded as “high polyreactivity”.

Take “QVQLVESGGGLVQAGGSLRLSCAASGFTFNYAMGWYRQAPGKERELVAAISSAGTTYYADSVKGRFTISRDNAKNTVYLQMNSLKPEDTAVYYCAALARPKQDRYRYYYWGQGTQVTVSS”: the “polyreactivity (PSR sort gate)” value is “high polyreactivity”.

Take “QVQRVESGGGLVQAGGSLRLSCAASASTIVIKAMGCYRQAPGKARELVADLDYRGGSTNYADSVKGRFTISRDNAKNTVYLQMNSLKPEDTAVYYFNKRYVIRRRGYDYWGQGTQVTVSS”: the “polyreactivity (PSR sort gate)” value is “low polyreactivity”.

“QVQLVESGGGLVQAGGSLRLSCAASGFIFYPYAMGWYRQAPGKEREVVAVITSGGRTYYADSVKGRFTISRDNAKNTVYLQMNSLKPEDTAVYYCAARYGRIHWKANWPEYGYWGQGTQVTVSS”: the “polyreactivity (PSR sort gate)” value is reported as “low polyreactivity”.

Regarding “QVQLVESGGGLVQAGGSLRLSCAASGSTSVDYTMGWYRQAPGKESELVAAIDYNGDSTYYADSVKGRFTISRDNAKITVYLQMNRLKPEDTAVYYCAADVWTLDPDEYDYWGQGTQVTLSS”, the “polyreactivity (PSR sort gate)” value was “low polyreactivity”.

“QVQLVDSGGGLVQAGGSLRLSCAATGFTLPKYAMGWYRQAPGKERELVAAISSGGSTYYADSVKGRYTISRDNAKNTVYLQMNSLKPEDSAVYYCAAKYYYYRRDYWGQGTQVTLSS”: the “polyreactivity (PSR sort gate)” value is “high polyreactivity”.

“QVQLVESGGGLVQAGGSLRLSCAASGRIYYPYAMGWYRQAPGKERELVASINYRGGSTYYADSVKGRFTISRDNAKNTVYLQMNSLKPEDTAVYYCAARFYWKYWRYDYWGQGTQVTVSS”: the “polyreactivity (PSR sort gate)” value is given as “high polyreactivity”.

As to “QVQLVESGGGLVQAGGSLRLSCAASGSTFGYYAMGWYRQAPRKERELVAVITRGGSTYYADSVKGRFTISRDNAKNTVYVQMNSLKPEDTAVYYCNARVQAVHYGYWGQGTEVTVSS”, the “polyreactivity (PSR sort gate)” value is “high polyreactivity”.

“QVQLVESGGGLVQAGGSLRLSCAASGSIFRYYAMVWYRQAPGKERELVAAISSGGNTKYADSVKGRFTISRDNAKNTVYLQRNSLKPADTAVYYCNADGKAGGDYDYWGQGTQVTVSS”: the “polyreactivity (PSR sort gate)” value is listed as “low polyreactivity”.

Consider “QVQLVESGGGLVQAGGSLRLSCAASGFIFSSHAMGWYRQAPGKERELVAAISRSGGRTYYADSVKGRFTISRDNAKNTVYLQMNSLKPEDTAVYYCAAKRWWQYYWGQGTQVTVSS”, for which the “polyreactivity (PSR sort gate)” value was “high polyreactivity”.

As for “QVQLVESGGGLVQAGGSLRLSCAASGFIFGYNAMGGYRLAPGKERELVAAISSYGGSPYYADSVKGRFTISRDNAKNTVYLQMNTLKPEDTAVYYWAARPVALRKYDYWGQGTQLTVSS”, the “polyreactivity (PSR sort gate)” value was “low polyreactivity”.

Take “QVQLVESGGGLVQAGGSLRLSCAASGLIFAIYAMGWYRKAPGKERELVAAISSGGGRTYYADSVKGRFTISRDNAKNTVYLQMNSLKPEDTAVYYCNARYRTVRSGGEYWVLMDYWGQGTQVTVSS”: the “polyreactivity (PSR sort gate)” value is “high polyreactivity”.

Turning to “QVQLVESGGGLVQAGGSLRLSCAASGSIFGWNTMGWYRQAPGKERELVASISRRGGSTHYADSVKGRFTISRDNAKNTVYLQMNSLKPEDTAVYYCAKVRYQGNGGYYWGQGTQVTVSS”, the “polyreactivity (PSR sort gate)” value is “high polyreactivity”.

“QVQLVESGGGLVHAGGSLRLSCAASGIIFPYNLMGWYRQAPGKERELVADITRGAASTYYADSVKGRFTISRVNAKNTVYFQMNRLKTEDTAVYFCNADGTWRTYNFWGQGTQVTVSS”: the “polyreactivity (PSR sort gate)” value is “high polyreactivity”.

Turning to “QVQLGESGGGFFKAGASLRVICAASGRTFRRNAKGWYRQSPGTERELVAAITCGGSTNYADSVKGRFTISRDNENNTVYLQMNSLKPEDTAVYYCNADSVWGWYTYDYWGQGTQVTVSS”, the “polyreactivity (PSR sort gate)” value was “high polyreactivity”.

As for “QVQLVESGGGLVQAGGSLRLSCAASGFTFRYYAMGWYSQAPGKERELVAAITRSGGSTYYADSVKGRFTISRDNAKNTVYLQMNSLKPDDTGVYYCAARGHYRDGDEYWGQGTEVTVSS”, the “polyreactivity (PSR sort gate)” value is “high polyreactivity”.

Source of the values: the nanobody polyreactivity screen of Harvey et al. (2022).
